Tests used:
HCT116 cells [1] = assay: MitoTracker flow cytometry of mitochondrial mass in HCT116 cells; assay type: cell-based, human; conditions: 1 day, via SIRT3 and PKCα
Experimental: (§1) FIGS. 4A, 4B, 4C, 4D and 4E show HCT116 cell death by rATRAM-GRA8-M/AS-induced mitochondrial activation [(A and B) HCT116 cells were incubated with WT rGRA8 or rATRAM-GRA8-M/AS and its mutants for indicated times, and then cell viability was measured with an MTT assay. […] The cells were stimulated with rATRAM-GRA8-M/AS for 1 day and subjected to enzymatic activity of OXPHOS V, and (C) MitoTracker fluorescence signals were assessed by flow cytometry. (D) A bar graph indicates a mitochondrial mass (MFI), and (E) the mtDNA content of BMDM was measured by quantitative real-time PCR. The mtDNA content was normalized by nuclear DNA. Significant differences were determined by comparison with control treatment (** P<0.01; *** P<0.001). Data represents five independent experiments with similar results].

HCT116 cells [2] = assay: Mitochondrial DNA quantification by real-time PCR; assay type: cell-based, human; conditions: 1 day, via SIRT3 and PKCα
Experimental: as §1
To quantify the copy number of mitochondrial DNA (mtDNA), by the method described in Autophagy. 2014; 10:785-802: The AMPK-PPARGC1A pathway is required for antimicrobial host defense through activation of autophagy, an mtDNA to nuclear DNA (nDNA) ratio was measured. Pyruvate kinase (Pklr) was used as a marker for nDNA and NADH dehydrogenase subunit 1 (mt-Nd1) was used as a marker for mtDNA. A real-time PCR reaction was performed according to the manufacturer's instructions (QuantiFast SYBR green PCR master mix; Qiagen, 204052), and temperature cycling was performed in QuantStudio™ 3 (ABI). […]

HCT116 cells [3] = assay: MTT assay of cell viability, HCT116 cells; assay type: cell-based, human
Experimental: FIGS. 1A, 1B and 1C: confirms that rGRA8 treatment increases HCT116 cell death by mitochondria pathways [(A and B). Various cancer cells were incubated with WT rGRA8 (20 μg/ml) and its mutants for indicated times and then cell viability was measured by MTT analysis (upper) and αATP5A1, αSIRT3 or αActin immunoblotting (lower) was performed. […] The cells were incubated with WT rGRA8 for indicated times and subjected to IP with αLys-AC or αHis and IB with αATP5A1, αATP5C1, αSIRT3, αPGC-1, αPKCα or αActin. Data represents five independent experiments with similar results. Significant differences were determined by comparison with rVector treatment (** P<0.01; *** P<0.001)].
as §1
As described in Non-Patent Document 1, the cell viability for a non-treated group was measured by an MTT assay. After incubation for an indicated time, 5 mg/ml of a 3-(4,5-dimethyl thiazol-2-yl)-2,5-diphenyltetrazoliumbromide (MTT) solution was added to a medium, and the cells were further incubated for 4 hours. Subsequently, all of the medium was removed, the same volume of a dimethyl sulfoxide (DMSO) solution was added for 15 minutes to dissolve formazan. Using a UV/VIS spectrophotometer, each well of a plate was measured at 540 nm to measure relative cell viability.

HCT116 xenografts = assay: HCT116 xenograft mouse model, antitumor activity; assay type: in vivo, nude mouse
[4] = Immunogenicity: specific IgG by ELISA in immunized mice; conditions: immunized BALB/C mice, OD 450 nm
Experimental: (§2) Immunoblotting was performed with anti-PKCα, anti-ATP5A1, anti-SIRT3 or anti-actin. […] (B) The schematic diagram of a xenograft model treated with rVector (upper). HCT116-expressing ATP5A1 WT and mutant cells were subcutaneously injected into the flank of nude mice. […] Each group included 10 mice. […] (C) Humoral immune responses in BALB/C mice. The mice were immunized via each route (intravenous injection or intraperitoneal injection) every third day, and subjected to blood collection on day 40. […] The values are expressed as mean±standard deviation for absorbance (OD) at 450 nm. Each group included five mice. (D) Cytokine response for rATRAM-GRA8-M/AS in tumor-bearing mice. As described in the method section, HCT116 cells were subcutaneously injected into the flank of a BALB/c mouse. A serum cytokine level was measured on day 30 after administration. Each group included 10 mice.
(§3) Since immunogenicity is closely related with safety and efficacy, it is one of the critical factors for development of therapeutic proteins. Therefore, by monitoring the production of antibodies against rATRAM-GRA8-M/AS in immunized mice, the immunogenicity of rATRAM-GRA8-M/AS was investigated. After three consecutive injections of rATRAM-GRA8-M/AS, a level of IgG antibody was analyzed using enzyme-linked immunosorbent assay (ELISA).

[5] = Serum cytokine response in tumor-bearing mice
Experimental: as §2, §3

[6] = BALB/c mice, versus negative control

B1: (GLAGLAGLLGLEGLLGLPLGLLEGLWLGLELEGN)2-GG-ATATTTTTTR-GG-YRFTVQTTQN (protein)
chain: GLAGLAGLLGLEGLLGLPLGLLEGLWLGLELEGNGLAGLAGLLGLEGLLGLPLGLLEGLWLGLELEGNGGATATTTTTTRGGYRFTVQTTQN
modifications: His tag; rATRAM-G8-M/AS
Which mitochondrial mass (HCT116 cells [1]) does the source give for B1 here?
The mitochondrial mass was “enhanced”.

What about the “mitochondrial DNA content” value (HCT116 cells [2]) of the same molecule?
Its value is “enhanced”.

What about the “fold improvement of IC50 compared with rGRA8 (cell death of cancer cell line)” value (HCT116 cells [3]; HCT116 cells) of the same molecule?
The value was 200 fold.

And the “IC50 (HCT116 cell death)” value (HCT116 cells [3]; HCT116 cells, MTT (FIG. 4A))?
Its value is 0.1 µg/mL.

What about the “fold improvement of IC50 compared with rGRA8 (cell death of cancer cell line)” value (HCT116 cells [3]; HCT116 cells, listed as rATRAM-G8-M/AS) of the same molecule?
The value was “approximately 200 fold”.

And the “cell death in HCT116 cells” value (HCT116 cells [3]; dose response, MTT (FIG. 4A))?
Its value is “induced cell death in HCT116 cells in a dose-dependent manner”.

And the “growth of tumors which started to initially grow” value (HCT116 xenografts; 20 μg/kg, intraperitoneal injection (FIG. 6A))?
The value was “inhibited the growth of tumors”.

What about the “growth of actively growing tumors” value (HCT116 xenografts; 20 μg/kg, intraperitoneal injection (FIG. 6B)) of the same molecule?
Its value is “inhibited the growth”.

What about the “fold improvement of IC50 compared with rGRA8 (anti-tumor activity)” value (HCT116 xenografts; HCT116 xenograft) of the same molecule?
The value was 500 fold.

What about the “IC50 (antitumor activity in xenograft)” value (HCT116 xenografts; HCT116 xenograft mice, intraperitoneal) of the same molecule?
The value was 20 µg/kg.

And the “tumor size and tumor growth” value (HCT116 xenografts; HCT116 xenograft, effect dependent on PKCα, SIRT3, ATP5A1 and acetylation state of K506 and K531)?
The value was “a decrease in tumor size and delayed tumor growth”.

What about the “fold improvement of IC50 compared with rGRA8 (anti-tumor activity)” value (HCT116 xenografts; HCT116 xenograft, listed as rATRAM-G8-M/AS) of the same molecule?
Its value is “approximately 500 fold”.

What about the “level of specific IgG antibody” value [4] of the same molecule?
Its value is “negligible”.

What about the “serum IL-1β level” value [5, 6] of the same molecule?
Its value is “almost similar to that of the negative control”.

What about the “serum IL-6 level” value [5, 6] of the same molecule?
Its value is “almost similar to that of the negative control”.

What about the “serum TNF-α level” value [5, 6] of the same molecule?
Its value is “almost similar to that of the negative control”.

And the “production of inflammatory cytokines” value ([5]; tumor-bearing mice, serum, day 30)?
The value was “negligible”.

Reference: US11492376B2, “Toxoplasma gondii GRA8-derived recombinant peptides and composition for preventing or treating cancer comprising the same” (Industry—University Cooperation Foundation Hanyang …, priority 2019, dated 2022)
